Data taken from PMC9482650, “Quantitative fragmentomics allow affinity mapping of interactomes” (Nature Communications, 2022).

T1: MPP7, Q5T2T1
T1 sequence (Q5T2T1 134-230, limits assumed, looked up): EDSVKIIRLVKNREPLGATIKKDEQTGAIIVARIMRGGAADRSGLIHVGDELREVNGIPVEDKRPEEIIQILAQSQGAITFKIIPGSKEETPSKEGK

T2: GRIP1_7, Q9Y3R0
T2 sequence (Q9Y3R0 999-1096, limits assumed, looked up): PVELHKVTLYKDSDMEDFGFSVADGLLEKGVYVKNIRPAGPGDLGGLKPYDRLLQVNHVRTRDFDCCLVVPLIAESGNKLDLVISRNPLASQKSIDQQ

T3: DVL3, Q92997
T3 sequence (Q92997 244-331, limits assumed, looked up): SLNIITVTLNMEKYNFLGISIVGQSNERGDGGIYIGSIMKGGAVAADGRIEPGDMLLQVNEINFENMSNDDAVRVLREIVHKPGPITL

T4: MPP2, Q14168
T4 sequence (Q14168 180-250, limits assumed, looked up): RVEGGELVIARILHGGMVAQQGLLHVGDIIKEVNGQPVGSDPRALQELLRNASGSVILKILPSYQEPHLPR

T5: APBA2_1, Q99767
T5 sequence (Q99767 563-664, limits assumed, looked up): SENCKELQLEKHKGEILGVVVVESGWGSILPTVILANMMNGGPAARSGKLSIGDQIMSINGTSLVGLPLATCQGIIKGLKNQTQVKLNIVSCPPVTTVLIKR

T6: LNX2_2, Q8N448
T6 sequence (Q8N448 334-432, limits assumed, looked up): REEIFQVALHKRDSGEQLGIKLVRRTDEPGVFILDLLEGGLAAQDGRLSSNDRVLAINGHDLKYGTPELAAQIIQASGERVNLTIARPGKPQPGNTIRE

T7: ARHGEF11, O15085
T7 sequence (O15085 42-136, limits assumed, looked up): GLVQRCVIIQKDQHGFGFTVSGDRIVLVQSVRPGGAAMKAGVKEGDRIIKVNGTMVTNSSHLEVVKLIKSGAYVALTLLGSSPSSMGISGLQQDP

T8: SNTG1, Q9NSN8
T8 sequence (Q9NSN8 52-150, limits assumed, looked up): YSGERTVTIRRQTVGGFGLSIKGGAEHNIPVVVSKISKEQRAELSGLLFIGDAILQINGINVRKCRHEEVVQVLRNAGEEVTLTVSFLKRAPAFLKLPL

T9: TIAM2, Q8IVF5
T9 sequence (Q8IVF5 885-986, limits assumed, looked up): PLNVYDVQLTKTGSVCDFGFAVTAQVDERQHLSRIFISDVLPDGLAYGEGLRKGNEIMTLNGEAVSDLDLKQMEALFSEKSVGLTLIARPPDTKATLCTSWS

T10: HTRA4, P83105
T10 sequence (P83105 378-476, limits assumed, looked up): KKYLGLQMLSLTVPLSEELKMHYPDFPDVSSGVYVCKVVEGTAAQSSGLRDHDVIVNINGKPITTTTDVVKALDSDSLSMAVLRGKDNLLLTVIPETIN

T11: NHERF3_3, Q5T2W1
T11 sequence (Q5T2W1 238-333, limits assumed, looked up): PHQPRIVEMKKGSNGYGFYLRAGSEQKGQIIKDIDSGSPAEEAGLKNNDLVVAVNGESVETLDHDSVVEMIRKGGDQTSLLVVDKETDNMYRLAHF

T12: APBA1_2, Q02410
T12 sequence (Q02410 742-832, limits assumed, looked up): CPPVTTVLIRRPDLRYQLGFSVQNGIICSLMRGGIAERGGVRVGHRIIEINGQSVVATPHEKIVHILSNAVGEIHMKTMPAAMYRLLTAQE

T13: MPDZ_12, O75970
T13 sequence (O75970 1857-1958, limits assumed, looked up): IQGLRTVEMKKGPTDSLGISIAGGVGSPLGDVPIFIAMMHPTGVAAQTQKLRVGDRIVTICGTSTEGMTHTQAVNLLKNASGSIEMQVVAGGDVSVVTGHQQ

T14: PDZD7_3, Q9H5P4
T14 sequence (Q9H5P4 857-944, limits assumed, looked up): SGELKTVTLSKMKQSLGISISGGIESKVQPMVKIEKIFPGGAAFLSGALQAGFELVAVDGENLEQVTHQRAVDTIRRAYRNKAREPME


Molecular target: T1, MPP7, Q5T2T1
Test: holdup assay
Design: key: below the threshold = too weak to quantify, mostly under pKd 3.1 to 4
Details: plain residues with an end cap or a label only (N-terminal biotin on a linker: ado-ado)

Binder | pKd
PPYRHRNTVV [ERBB4, Q15303] | below the threshold

Molecular target: T2, GRIP1_7, Q9Y3R0
Test: holdup assay
Design: key: below the threshold = too weak to quantify, mostly under pKd 3.1 to 4
Details: plain residues with an end cap or a label only (N-terminal biotin on a linker: ado-ado)

Binder | pKd
PPYRHRNTVV [ERBB4, Q15303] | below the threshold

Molecular target: T3, DVL3, Q92997
Test: holdup assay
Design: key: below the threshold = too weak to quantify, mostly under pKd 3.1 to 4
Details: plain residues with an end cap or a label only (N-terminal biotin on a linker: ado-ado)

Binder | pKd
PPYRHRNTVV [ERBB4, Q15303] | below the threshold

Molecular target: T4, MPP2, Q14168
Test: holdup assay
Design: key: below the threshold = too weak to quantify, mostly under pKd 3.1 to 4
Details: plain residues with an end cap or a label only (N-terminal biotin on a linker: ado-ado)

Binder | pKd
PPYRHRNTVV [ERBB4, Q15303] | below the threshold

Molecular target: T5, APBA2_1, Q99767
Test: holdup assay
Design: key: below the threshold = too weak to quantify, mostly under pKd 3.1 to 4
Details: plain residues with an end cap or a label only (N-terminal biotin on a linker: ado-ado)

Binder | pKd
PPYRHRNTVV [ERBB4, Q15303] | below the threshold

Molecular target: T6, LNX2_2, Q8N448
Test: holdup assay
Design: key: below the threshold = too weak to quantify, mostly under pKd 3.1 to 4
Details: plain residues with an end cap or a label only (N-terminal biotin on a linker: ado-ado)

Binder | pKd
PPYRHRNTVV [ERBB4, Q15303] | 4.69

Molecular target: LIMK2, P53671
Sequence (P53671 143-248): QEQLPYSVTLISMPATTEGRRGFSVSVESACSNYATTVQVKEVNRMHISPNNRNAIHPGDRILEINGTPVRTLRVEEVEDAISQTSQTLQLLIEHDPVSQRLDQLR
Test: holdup assay
Design: key: below the threshold = too weak to quantify, mostly under pKd 3.1 to 4
Details: plain residues with an end cap or a label only (N-terminal biotin on a linker: ado-ado)

Binder | pKd
PPYRHRNTVV [ERBB4, Q15303] | below the threshold

Molecular target: TJP1_2, Q07157
Sequence (Q07157 181-274): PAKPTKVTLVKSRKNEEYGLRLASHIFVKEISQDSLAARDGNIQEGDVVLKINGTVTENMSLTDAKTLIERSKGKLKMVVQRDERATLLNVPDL
Test: holdup assay
Design: key: below the threshold = too weak to quantify, mostly under pKd 3.1 to 4
Details: plain residues with an end cap or a label only (N-terminal biotin on a linker: ado-ado)

Binder | pKd
PPYRHRNTVV [ERBB4, Q15303] | below the threshold

Molecular target: T7, ARHGEF11, O15085
Test: holdup assay
Design: key: below the threshold = too weak to quantify, mostly under pKd 3.1 to 4
Details: plain residues with an end cap or a label only (N-terminal biotin on a linker: ado-ado)

Binder | pKd
PPYRHRNTVV [ERBB4, Q15303] | 4.06

Molecular target: T8, SNTG1, Q9NSN8
Test: holdup assay
Design: key: below the threshold = too weak to quantify, mostly under pKd 3.1 to 4
Details: plain residues with an end cap or a label only (N-terminal biotin on a linker: ado-ado)

Binder | pKd
PPYRHRNTVV [ERBB4, Q15303] | below the threshold

Molecular target: HTRA2, O43464
Sequence (O43464 355-458): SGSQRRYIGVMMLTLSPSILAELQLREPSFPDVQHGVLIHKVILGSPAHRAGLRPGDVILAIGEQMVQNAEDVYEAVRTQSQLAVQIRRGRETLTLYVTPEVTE
Test: holdup assay
Design: key: below the threshold = too weak to quantify, mostly under pKd 3.1 to 4
Details: plain residues with an end cap or a label only (N-terminal biotin on a linker: ado-ado)

Binder | pKd
PPYRHRNTVV [ERBB4, Q15303] | below the threshold

Molecular target: MAST2, Q6P0Q8
Sequence (Q6P0Q8 1099-1202): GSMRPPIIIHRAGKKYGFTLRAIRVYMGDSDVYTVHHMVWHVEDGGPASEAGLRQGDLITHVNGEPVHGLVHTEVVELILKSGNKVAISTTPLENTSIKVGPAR
Test: holdup assay
Design: key: below the threshold = too weak to quantify, mostly under pKd 3.1 to 4
Details: plain residues with an end cap or a label only (N-terminal biotin on a linker: ado-ado)

Binder | pKd
PPYRHRNTVV [ERBB4, Q15303] | 4.48

Molecular target: SCRIB_1, Q14160
Sequence (Q14160 718-814): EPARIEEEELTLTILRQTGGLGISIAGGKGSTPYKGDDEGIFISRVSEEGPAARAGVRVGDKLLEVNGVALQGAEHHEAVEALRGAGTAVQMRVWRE
Test: holdup assay
Design: key: below the threshold = too weak to quantify, mostly under pKd 3.1 to 4
Details: plain residues with an end cap or a label only (N-terminal biotin on a linker: ado-ado)

Binder | pKd
PPYRHRNTVV [ERBB4, Q15303] | 3.92

Molecular target: T9, TIAM2, Q8IVF5
Test: holdup assay
Design: key: below the threshold = too weak to quantify, mostly under pKd 3.1 to 4
Details: plain residues with an end cap or a label only (N-terminal biotin on a linker: ado-ado)

Binder | pKd
PPYRHRNTVV [ERBB4, Q15303] | below the threshold

Molecular target: T10, HTRA4, P83105
Test: holdup assay
Design: key: below the threshold = too weak to quantify, mostly under pKd 3.1 to 4
Details: plain residues with an end cap or a label only (N-terminal biotin on a linker: ado-ado)

Binder | pKd
PPYRHRNTVV [ERBB4, Q15303] | below the threshold

Molecular target: T11, NHERF3_3, Q5T2W1
Test: holdup assay
Design: key: below the threshold = too weak to quantify, mostly under pKd 3.1 to 4
Details: plain residues with an end cap or a label only (N-terminal biotin on a linker: ado-ado)

Binder | pKd
PPYRHRNTVV [ERBB4, Q15303] | below the threshold

Molecular target: Inadl_3, Q8NI35
Sequence (Q8NI35 359-469): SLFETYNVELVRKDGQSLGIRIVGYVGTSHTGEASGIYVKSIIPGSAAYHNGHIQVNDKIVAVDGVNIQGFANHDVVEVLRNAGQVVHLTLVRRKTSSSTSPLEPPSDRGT
Test: holdup assay
Design: key: below the threshold = too weak to quantify, mostly under pKd 3.1 to 4
Details: plain residues with an end cap or a label only (N-terminal biotin on a linker: ado-ado)

Binder | pKd
PPYRHRNTVV [ERBB4, Q15303] | below the threshold

Molecular target: DLG5_1, Q8TDM6
Sequence (Q8TDM6 617-713): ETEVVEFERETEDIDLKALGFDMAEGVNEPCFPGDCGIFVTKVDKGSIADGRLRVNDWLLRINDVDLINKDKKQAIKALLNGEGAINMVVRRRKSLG
Test: holdup assay
Design: key: below the threshold = too weak to quantify, mostly under pKd 3.1 to 4
Details: plain residues with an end cap or a label only (N-terminal biotin on a linker: ado-ado)

Binder | pKd
PPYRHRNTVV [ERBB4, Q15303] | below the threshold

Molecular target: GRIP2_3, Q9C0E4
Sequence (Q9C0E4 238-339): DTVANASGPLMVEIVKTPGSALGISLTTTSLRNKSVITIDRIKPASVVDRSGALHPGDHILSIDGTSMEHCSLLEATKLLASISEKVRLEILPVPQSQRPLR
Test: holdup assay
Design: key: below the threshold = too weak to quantify, mostly under pKd 3.1 to 4
Details: plain residues with an end cap or a label only (N-terminal biotin on a linker: ado-ado)

Binder | pKd
PPYRHRNTVV [ERBB4, Q15303] | below the threshold

Molecular target: GOPC, Q9HD26
Test: holdup assay
Design: key: below the threshold = too weak to quantify, mostly under pKd 3.1 to 4
Details: plain residues with an end cap or a label only (N-terminal biotin on a linker: ado-ado)

Binder | pKd
PPYRHRNTVV [ERBB4, Q15303] | 4.08

Molecular target: T12, APBA1_2, Q02410
Test: holdup assay
Design: key: below the threshold = too weak to quantify, mostly under pKd 3.1 to 4
Details: plain residues with an end cap or a label only (N-terminal biotin on a linker: ado-ado)

Binder | pKd
PPYRHRNTVV [ERBB4, Q15303] | 3.53

Molecular target: T13, MPDZ_12, O75970
Test: holdup assay
Design: key: below the threshold = too weak to quantify, mostly under pKd 3.1 to 4
Details: plain residues with an end cap or a label only (N-terminal biotin on a linker: ado-ado)

Binder | pKd
PPYRHRNTVV [ERBB4, Q15303] | below the threshold

Molecular target: T14, PDZD7_3, Q9H5P4
Test: holdup assay
Design: key: below the threshold = too weak to quantify, mostly under pKd 3.1 to 4
Details: plain residues with an end cap or a label only (N-terminal biotin on a linker: ado-ado)

Binder | pKd
PPYRHRNTVV [ERBB4, Q15303] | 4.63

Molecular target: ARHGEF12, Q9NZN5-2
Sequence (Q9NZN5 other isoform, or with tags, fused parts or gaps): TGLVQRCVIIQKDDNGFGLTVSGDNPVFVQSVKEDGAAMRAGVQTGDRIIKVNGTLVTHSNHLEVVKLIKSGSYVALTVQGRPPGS
Test: holdup assay
Design: key: below the threshold = too weak to quantify, mostly under pKd 3.1 to 4
Details: plain residues with an end cap or a label only (N-terminal biotin on a linker: ado-ado)

Binder | pKd
PPYRHRNTVV [ERBB4, Q15303] | 4.12
